One assay deals with human IL6 (Homo sapiens, UniProt P05231). Briefly: Phage ELISA, binding to human IL6 in the presence or absence of adenosine and/or ATP. To be noted: with or without 10 mM adenosine and ATP. The procedure:
(§1) Phage-containing culture supernatants were collected according to a conventional method (Methods Mol. Biol. (2002) 178, 133-145) from single colonies of E. coli obtained by the method described above. The collected culture supernatants were treated by ultrafiltration using NucleoFast 96 (MACHERY-NAGEL). 100 μl of the culture supernatants were added to each well of NucleoFast 96, and it was centrifuged (4500 g for 45 minutes) to remove flow through. After addition of 100 μl of H2O, the NucleoFast 96 was washed by centrifugation (4500 g for 30 minutes). Finally, 100 μl of TBS was added, and the NucleoFast 96 was allowed to stand for five minutes at room temperature. A phage suspension was collected from the supernatant in each well of the NucleoFast 96.
(§2) The purified phages, to which TBS or (adenosine+ATP)/TBS was added, were subjected to ELISA by the following procedure. A StreptaWell 96 microtiter plate (Roche) was coated overnight with 100 μl of TBS containing biotin-labeled antigen. […] Then, the developed color was assessed by measuring absorbance at 450 nm. […]
(§3) First, a StreptaWell 96 microtiter plate (Roche) was coated at room temperature for one hour or more with 100 μl of TBS containing a biotin-labeled antigen. […] Then, the developed color was assessed by measuring absorbance at 450 nm (FIGS. 25, 26, and 27). […]
Background: ELISA stands for enzyme-linked immunosorbent assay.

For assay [1], the target named is HSA (human serum albumin) (Homo sapiens, UniProt P02768). The assay can be described thus: Phage ELISA, binding to HSA in the presence or absence of adenosine and/or ATP. Conditions: with or without 10 mM adenosine and ATP. Here is the method: as §1, §2, §3
A further assay addresses human IgA-Fc (Homo sapiens, UniProt P01876). The assay can be described thus: Phage ELISA, binding to human IgA-Fc in the presence or absence of adenosine and ATP (monovalent / multivalent display). The procedure: Culture supernatants containing phages were collected according to a conventional method (Methods Mol. Biol. (2002) 178, 133-145) from single colonies of E. coli obtained by the method described above. The collected culture supernatants were ultrafiltrated using NucleoFast 96 (MACHERY-NAGEL). 100 μl of the culture supernatants were added to each well of NucleoFast 96 and centrifuged (4500 g for 45 minutes) to remove flow-through. After 100 μl of H2O was added, the NucleoFast 96 was washed by centrifugation (4500 g for 30 minutes). Finally, 100 μl of TBS was added, and the NucleoFast 96 was allowed to stand for five minutes at room temperature. A phage solution contained in the supernatant in each well was collected.
Purified phages, to which TBS or (adenosine+ATP)/TBS was added, were subjected to ELISA by the following procedure. A StreptaWell 96 microtiter plate (Roche) was coated overnight with 100 μl of TBS containing a biotin-labeled antigen. After the antigen was removed from each well of the plate by washing with TBST, the wells were blocked with 250 μl of 2% skim milk/TBS for one hour or more. 2% skim milk/TBS was removed, and then the prepared, purified phages were added to each well. […] Then, the developed color was assessed by measuring absorbance at 450 nm.

human IL6, sequence (P05231 30-212): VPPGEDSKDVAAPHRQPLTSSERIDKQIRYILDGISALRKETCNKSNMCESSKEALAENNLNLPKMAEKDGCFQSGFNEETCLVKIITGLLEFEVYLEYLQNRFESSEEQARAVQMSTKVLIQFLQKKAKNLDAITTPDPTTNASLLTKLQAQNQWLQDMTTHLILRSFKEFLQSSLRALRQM
human IgA-Fc, sequence (P01876 with tags, fused parts or gaps isoform P01876-1): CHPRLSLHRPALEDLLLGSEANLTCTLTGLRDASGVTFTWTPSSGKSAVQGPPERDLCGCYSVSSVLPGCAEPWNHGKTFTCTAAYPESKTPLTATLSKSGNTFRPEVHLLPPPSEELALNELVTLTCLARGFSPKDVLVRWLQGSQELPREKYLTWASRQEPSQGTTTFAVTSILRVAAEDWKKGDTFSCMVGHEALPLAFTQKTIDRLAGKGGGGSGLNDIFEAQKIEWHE

B1: I6RLSA1-6_011: clone with antigen-binding activity to human IL-6 in the absence of ATP and adenosine (antibody, V domains shown)
VH: EVQLVESGGDLVKPGGGLRLSCAASGFTFSGYTMHWVRQAPGKGLEWVSSISSRSSHISYADSVKGRFTISRDNAKNSLYLQMNSLRAEDTAVYYCARFGRKYRMNWVFDYWGQGTLVTVSS
VL: QSALTQPPSASGSPGQTVTISCTGTSTDVGFYNYVSWYQQHPGKAPKLMIYDTSKRPSGVPDRFSGSKSGNTASLTVSGLQAEDEADYFCSTVTGIWSVGFGGGTKLTVL
For B1, the “antigen-binding activity to human IL-6 in the absence of ATP and adenosine” value in the assay with human IL6 is “had an antigen-binding activity”.

B2: HSADSA1-6_020: clone with antigen-binding activity to HSA in the absence of ATP and adenosine (antibody, V domains shown)
VH: EVQLVESGGDLVKPGGGLRLSCAASGFTFSSHTMNWVRQAPGKGLEWVSSISSRSNHATYADSVKGRFTISRDNAKNSLYLQMNSLRAEDTAVYYCARFGKKGRYLWVFDYWGQGTLVTVSS
VL: QSALTQPPSASGSPGQTVTISCTGTSSDVGDYNYVSWYQQHPGKAPKLMIYYVSKRPSGVPDRFSGSKSGNTASLTVSGLQAEDEADYFCSLTTDSLNPVFGGGTKLTVL
As to B2, in assay [1], the “antigen-binding activity to human serum albumin (HSA) in the absence of ATP and adenosine” value is “had antigen-binding activity”.

B3: IADL3C5-4_048: clone binding human IgA-Fc in the presence of adenosine and ATP; SEQ ID NOs: 100 and 101 (antibody, listed as Homo sapiens, V domains shown)
VH: EVQLVESGGDLVKPGGGLRLSCAASGFTFSGHTMNWVRQAPGKGLEWVSSISSRSNHIYYADSVKGRFTISRDNAKNSLYLQMNSLRAEDTAVYYCARYGRKFMMNWVFDYWGQGTLVTVSS
VL: QSALTQPPSASGSPGQTVTISCTGTSTDVGFYNYVSWYQQHPGKAPKLMIYQNSKRPSGVPDRFSGSKSGNTASLTVSGLQAEDEADYFCSLRSSNLSPGFGGGTKLTVL
Take B3: the “antigen-binding activity in the presence of adenosine and ATP” value with human IgA-Fc is on record as “exhibits antigen-binding activity”.

Values taken from US11673947B2, “Target tissue-specific antigen-binding molecule” (Chugai Seiyaku Kabushiki Kaisha, priority 2012, dated 2023).
